Key:
[1] = system: Mgat1 ZFN left monomer (CompoZr, FokI fusion) (synthetic construct); assay: cell_activity; conditions: Cel-I assay day 3 in CHO cells (9.6% day 10); value is for ZFN pair; spacer ccagca
[2] = system: Mgat1 ZFN right monomer (CompoZr, FokI fusion) (synthetic construct); assay: cell_activity; conditions: Cel-I assay day 3 in CHO cells (9.6% day 10); value is for ZFN pair; spacer ccagca

## AACAAGTTCAAGTTC (double strand) [CHO Mgat1 ZFN left half-site]
[1]
  activity: 8.8%

## GCTGTGGTAGTGGAGGAC (double strand) [CHO Mgat1 ZFN right half-site]
[2]
  activity: 8.8%

Reference: US20140349341
